Experimental data as given in patent US20150050271A1 (published 2015).
Numbering of substitutions follows the chain as printed. Names and notes keep the numbering of the source.

Key:
[1] = target: WT (1A); assay: ELISA
[2] = target: WT (1B); assay: ELISA
[3] = target: WT (3); assay: ELISA
[4] = target: WT (2A); assay: ELISA
[5] = target: WT (2B); assay: ELISA
[6] = target: T1, MAD1 JCV VLPs (virus-like particles of JCV capsid protein VP1, MAD1 strain) (JC virus (JCV), MAD1, UniProt P03089 1-354); assay: Biacore; mAb
[7] = target: Type 3 wt; assay: Biacore; mAb; printed ≤
[8] = target: T1, MAD1 JCV VLPs (virus-like particles of …); assay: Biacore; Fab
[9] = target: T1, MAD1 JCV VLPs (virus-like particles of …); assay: ELISA

T1 sequence (P03089 whole entry): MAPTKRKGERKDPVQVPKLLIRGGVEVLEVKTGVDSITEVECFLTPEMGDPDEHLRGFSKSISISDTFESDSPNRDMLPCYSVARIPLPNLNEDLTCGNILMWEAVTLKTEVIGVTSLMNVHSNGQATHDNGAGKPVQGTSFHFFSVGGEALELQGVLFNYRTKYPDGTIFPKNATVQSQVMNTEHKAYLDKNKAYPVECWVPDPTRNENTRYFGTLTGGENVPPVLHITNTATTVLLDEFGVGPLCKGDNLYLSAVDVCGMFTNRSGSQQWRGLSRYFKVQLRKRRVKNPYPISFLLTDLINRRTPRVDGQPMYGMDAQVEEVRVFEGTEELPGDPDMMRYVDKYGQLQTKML

B1: BIIB048 (antibody, V domains shown)
VH: QVQLVESGGGVVQPGRSLRLSCAASGFSFDRNYWIAWVRQAPGKGLEWVAVISAGGSGNTYYATWAKGRFTISRDNSKNTLYLQMNSLRAEDTAVYYCARFYSGGGYYAGYFTLWGQGTLVTVSS
VL: AIQLTQSPSSLSASVGDRVTITCQASQSIGNNLAWYQQKPGKAPKLLIYLASYLASGVPSRFSGSGSGTDFTLTISSLQPEDFATYYCQSSYYSPNDNAFGQGTKVEIK
- EC50 [1]: < 0.1 nM
- EC50 [2]: < 0.1 nM
- EC50 [3]: < 0.1 nM
- EC50 [4]: < 0.1 nM
- EC50 [5]: < 0.1 nM

B2: antibody 50/31-A (heavy chain H0 V50A, light chain L2 N31A) (antibody, V domains shown)
VH: B1 VH with V51A
VL: B1 VL with I2F, T22N, N31A, D70Q, I75V
- Kd [6]: 0.9 nM

B3: H0/L0 mAb (antibody, V domains shown)
VH: B1 VH
VL: B1 VL
- Kd [7]: < 0.01 nM

B4: H0/L0 Fab (antibody, V domains shown)
VH: B1 VH
VL: B1 VL
- Kd [8]: 50 nM

B5: 5031G (antibody, V domains shown)
VH: B1 VH with V51G
VL: B1 VL with I2F, T22N, N31A, D70Q, I75V
- EC50 [1]: < 0.1 nM
- EC50 [2]: < 0.1 nM
- EC50 [3]: < 0.1 nM
- EC50 [4]: < 0.1 nM
- EC50 [5]: < 0.1 nM

B6: antibody 50/31-G (heavy chain H0 V50G, light chain L2-N31A, as told in paragraph 169) (antibody, V domains shown)
VH: B1 VH with V51G
VL: B1 VL with I2F, T22N, N31A, D70Q, I75V
- EC50 [9]: < 0.1 nM

B7: V50A/N31A Fab (antibody, V domains shown)
VH: B1 VH with V51A
VL: B1 VL with I2F, T22N, N31A, D70Q, I75V
- Kd [8]: 8.9 nM

B8: humanized R399 H0L0 (antibody, V domains shown)
VH: B1 VH
VL: B1 VL
- EC50 [9]: < 0.1 nM
